Assays:
EWSR1 (wild type) = biological target: T1, EWSR1 (wild type) (UniProt Q01844 1-656, limits assumed); test: binding assay in cells; method not described, data not shown
T1 construct: also called EWSR1-WT; HA-EWSR1
T1 sequence (looked up): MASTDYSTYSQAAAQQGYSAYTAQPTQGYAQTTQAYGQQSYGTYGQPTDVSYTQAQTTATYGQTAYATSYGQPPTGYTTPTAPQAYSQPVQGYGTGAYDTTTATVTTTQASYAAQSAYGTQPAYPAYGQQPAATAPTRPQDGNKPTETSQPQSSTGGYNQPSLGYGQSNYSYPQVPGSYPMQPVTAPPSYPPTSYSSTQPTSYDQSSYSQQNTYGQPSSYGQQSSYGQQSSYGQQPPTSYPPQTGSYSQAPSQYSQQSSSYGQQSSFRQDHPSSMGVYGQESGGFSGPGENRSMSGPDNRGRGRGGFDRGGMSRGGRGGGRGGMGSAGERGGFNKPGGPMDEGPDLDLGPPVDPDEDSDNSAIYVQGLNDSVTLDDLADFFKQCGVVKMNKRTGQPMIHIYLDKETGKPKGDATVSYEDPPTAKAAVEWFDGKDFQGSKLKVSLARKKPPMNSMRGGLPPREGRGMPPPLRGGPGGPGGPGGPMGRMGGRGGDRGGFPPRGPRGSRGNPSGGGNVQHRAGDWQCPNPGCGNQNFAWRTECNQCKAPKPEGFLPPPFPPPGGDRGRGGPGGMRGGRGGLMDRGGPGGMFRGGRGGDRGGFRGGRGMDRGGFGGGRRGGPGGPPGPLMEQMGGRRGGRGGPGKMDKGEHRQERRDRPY

CUL3 (wild type) = biological target: T2, CUL3 (wild type) (UniProt Q13618 1-768); test: binding assay in cells; method not described
T2 construct: also called WT-CUL3; cullin 3
T2 sequence (Q13618 whole entry): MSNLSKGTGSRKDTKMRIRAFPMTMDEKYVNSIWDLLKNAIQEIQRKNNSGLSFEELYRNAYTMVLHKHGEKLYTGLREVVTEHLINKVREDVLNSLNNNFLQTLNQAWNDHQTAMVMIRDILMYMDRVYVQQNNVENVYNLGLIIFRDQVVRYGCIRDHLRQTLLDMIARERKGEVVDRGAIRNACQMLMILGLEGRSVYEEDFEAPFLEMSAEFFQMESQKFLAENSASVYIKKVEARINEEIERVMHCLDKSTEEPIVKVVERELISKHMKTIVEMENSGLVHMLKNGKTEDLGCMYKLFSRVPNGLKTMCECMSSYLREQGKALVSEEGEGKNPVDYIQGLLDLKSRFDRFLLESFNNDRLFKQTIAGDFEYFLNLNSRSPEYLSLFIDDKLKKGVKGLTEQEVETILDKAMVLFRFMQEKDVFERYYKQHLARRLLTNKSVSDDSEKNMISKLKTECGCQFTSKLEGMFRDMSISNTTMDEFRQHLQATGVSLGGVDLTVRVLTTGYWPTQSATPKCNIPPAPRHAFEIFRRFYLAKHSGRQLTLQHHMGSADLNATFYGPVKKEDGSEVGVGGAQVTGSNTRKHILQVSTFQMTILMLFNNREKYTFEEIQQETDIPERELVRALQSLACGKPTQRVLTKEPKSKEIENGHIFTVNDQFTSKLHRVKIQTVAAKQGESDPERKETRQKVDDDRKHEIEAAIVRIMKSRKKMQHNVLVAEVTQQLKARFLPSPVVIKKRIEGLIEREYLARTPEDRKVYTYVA

CUL3-E358Q = biological target: T3, CUL3-E358Q (UniProt Q13618 1-768); test: binding assay in cells; method not described
T3 construct: also called E358Q-CUL3
T3 sequence (Q13618 whole entry E358Q): as the sequence (Q13618 whole entry) above, with E358Q counted along it

B1: SPOP (other, human, UniProt O43791 1-374, looked up)
chain: MSRVPSPPPPAEMSSGPVAESWCYTQIKVVKFSYMWTINNFSFCREEMGEVIKSSTFSSGANDKLKWCLRVNPKGLDEESKDYLSLYLLLVSCPKSEVRAKFKFSILNAKGEETKAMESQRAYRFVQGKDWGFKKFIRRDFLLDEANGLLPDDKLTLFCEVSVVQDSVNISGQNTMNMVKVPECRLADELGGLWENSRFTDCCLCVAGQEFQAHKAILAARSPVFSAMFEHEMEESKKNRVEINDVEPEVFKEMMCFIYTGKAPNLDKMADDLLAAADKYALERLKVMCEDALCSNLSVENAAEILILADLHSADQLKTQAVDFINYHASDVLETSGWKSMVVSHPHLVAEAYRSLASAQCPFLGPPRKRLKQS
notes: Exogenous SPOP carried a GST, Flag or HA tag; endogenous SPOP was also used; also called GST-SPOP; Flag-SPOP
B1: no binding (EWSR1 (wild type)); binds (CUL3 (wild type)); binds (CUL3-E358Q).
